The text below walks through data of the DeepSol protein solubility set.

A short description of the data set: soluble on expression in E. coli; label from the status in PepcDB or PDB records.
“MSLTEEQLLFRIALTHVKGVGSVLARQLLSAMGSPEAIFSDRKELVQRLPKAPRRLLDAIFSPSVMEEARRKLDQALKAGLNMYFITDDNYPYRLKECVDAPILLYSKGNVDLSPRRVLSIVGTRNITAYGRTATERIVSGLAETIPDLLIVSGLAYGVDVAAHKAALDNGLPTVAVLAHGLDRIYPSGHRSIAMEMLRNGGLLTDYPMGTEPERFNFVGRNRIVAGLSDATLVIESAEKGGSLITAGLAFGYNREVLALPGRATDSRSAGCNALIRDQKAALVSSAQDVLTLLDWSSTIDAKPQTEGHHHHHH”: the “soluble on expression in E. coli” value is given as “soluble”.
The result for “RESITDSRMAYRTISPFLTDLPQEEMWVLLLNQSGKIISMENLSRGGVSETSADVRLIMHKAVSHLASAIILAHNHPSGTVRPSEQDIQLTQRVQKAATLLGFRLNDHLIIGDDGAYFSFADEGLL” reads “not soluble”; that for “MNYHTFCPISCVSWLYQKIEDSFFLVIGTKTCGYFLQNAMGVMIFAEPRYAMAELEEGDISAQLKDYEELKRLCLQIKRDRNPSVIVWIGTCTTEIIKMDLEGLAPQLEAEIGIPIVTARANGLDYAFTQGEDTVLASMAHKCPTSAQVQGEDKELEHHHHHH”, “soluble”.
With “MGSDKIHHHHHHMLDKKTNIATDDPKAWLAQHGINEVECLVPDMNGVLRGKALPTAKFLKALEDRALYLPSSAFLVSIDGRYSGSIDEGFAYSDPDMRMVPDVSTLCLAPGAGAGKAYVFADAFHMDGRPWMASPRHVLRAVLDLYRQRGWRAVVAPEVEFYLTAPNPDPDRPLTAPVGANGRAEGVQHPYDMVALEEFEPVIRRVYDYAAAAGLPLDTLIHESGTAQLEINLLHGDALPLADQVLLFKRLTRQAAQQCGMHATFMAKPIAAQAGSSMHLHMSVVDEAGNALFASDDDADTEMFGHFIGGLQTYVPEIMPLFAPNVNSFRRIRPNHSAPANIEWSHDNRSCGLRVPAGGRSARRVENRLPGADSNPYLAIAGSLLAGYLGVQQKLARSAEASGNAYKIKSTLPKTMEEALDRFTACEPVRKLLGEDFSQTYLRVKSVELDLFQSVVTSWERDHLLLKV”, the “soluble on expression in E. coli” value is “not soluble”.
With “MGSDKIHHHHHHMETVNILGTGSAMVTKCYNTCFTLSNGDEHFLVDTGGGNTILTNLEKLHIGIDKIHNVFISHRHNDHITGIIWIIRAVAQRIINGKYDGDLKIYCCKENIEVINTICKLLLEKKFTKYMGNRIVFSEIYDGCRLKVLDWDIEFFDIKSTKQLQFGFTTVLKSGKKLTFLGDEPYRENLYEYANNSDYIFHEAFCLYSEKDIFKPYEKHHATVKDACENADKLSVKNIILYHTEDKNIEKRKELYIGEGSKFFKGNIIVPDDLETIELK”, the “soluble on expression in E. coli” value is reported as “not soluble”.
In the case of “MTHEYQDLITIFNDTFLEQFNTTLELGGDEPIYLPADDEHPHHRIIFARGFYASALHEIAHWCVAGPERRLMEDFGYWYEPDGRTEAVQAEFEKVEIRPQAYEWILATSAGFPFTVSCDNLHGDFEPDRLGFMQKVHKEVLGILEAGLPPRVKMLSDALRAFYQTKPLEASDFSVK”, the “soluble on expression in E. coli” value is “not soluble”.
Consider “MKSNPKYFLMNDVERQSKYSPKYVPNNSLKERILEFLDYYIAPLKLYLLSYPMPDCLWDNRKLRLKASGVQVTPSSEPVHIDDRLIHISQKQPSE”, for which the “soluble on expression in E. coli” value is given as “not soluble”.
For the sequence “MAGETDLQKILRESNDQFTAQMFSEVVKANPGQNVVLSAFSVLPPLGQLALASVGESHDELLRALALPNDNVTKDVFADLNRGVRAVKGVDLKMASKIYVAKGLELNDDFAAVSRDVFGSEVQNVDFVKSVEAAGAINKWVEDQTNNRIKNLVDPDALDETTRSVLVNAIYFKGSWKDKFVKERTMDRDFHVSKDKTIKVPTMIGKKDVRYADVPELDAKMIEMSYEGDQASMIIILPNQVDGITALEQKLKDPKALSRAEERLYNTEVEITLPKFKIETTTDLKEVLSNMNIKKLFTPGAARLENLLKTKESLTVDAAIQKAFIEVNEEGAEAAAANAFGIVPKSLILYPEVHIDRPFYFELKIDGIPMFNGKVIEP”, the “soluble on expression in E. coli” value is reported as “soluble”.
With “MTTLYLASGSPRRQELLTQLGFSFEQVVPGIEEQRRAQESAQQYVVRLAREKAQAGVALVPRDLPVLGADTIVVLNGEVLEKPRDAAHAAEMLRLLSGNTHQVMTAVALADSQQTLDCLVVTEVTFRTLSAQDITGYVASGEPLDKAGAYGIQGRGGCFVRKINGSYHAVVGLPLVETYELLSHFNALRDKRDKHDG” the entry was “not soluble”; with “MSLSREPQTYLAQRFDPDALGQPALALQLEARHNDTEVPVHRHRKGQLVVACRGGITCTVPDGLWMVPAGFGVWIPGGIAHSNRVTANGKVCFLFVEPGAARLPSDCCTLALSPLVLELILHLSAQPQDYPHDGPLARLAGVLLELLEQAPTEQLYLPLPDNRGLRRIADELTRAPGDRASMAEWARRVAMSERSLARMVRRETGMTFGQWRQQLQIIIALQQLSAGVSVQRTAEILGYESVSSFIGMFRKALGSPPARYVRDSMEGGSHHHHHH”, “soluble”; with “MGSDKIHHHHHHMYLKELSMMPGVSGDEGKVRDFIKSKIEGLVDNLYTDVLGNLIALKRGRDSSKKLLVSAHMDEVGFVVSKIEKDGKVSFLPVGGVDPRILPGKVVQVKNLKGVIGYRPIHLQRDEENTPPRFENLRIDFGFSSADEAKKYVSIGDYVSFVSDYIEKNGRAVGKAFDDRAGCSVLIDVLESGVSPAYDTYFVFTVQEETGLRGSAVVVEQLKPTCAIVVETTTAGDNPELEERKWATHLGDGPAITFYHRGYVIPKEIFQTIVDTAKNNDIPFQMKRRTAGGTDAGRYARTAYGVPAGVISTPARYIHSPNSIIDLNDYENTKKLIKVLVEEGKIVEVVS”, “not soluble”.
Turning to “MAHHHHHHMLHEVNVGTSDIVRGGHGGDEAATPQQPPALSVVEEHIQRIRLELCGQRHPPSGYASAIAIPSTAAGLDRVAVLVDLLDQVRYWAIEEAFTFKDEPSRLAETEAPEAVVACLCSQRPQLVAQALRVVQPMLRHRQTAYETRRVMVDVWAYREQVNSMVPLPEGLDPLLAMLAEFLEQHKGVLPVLVEALSTATAALVQDGTACVGSDNGNDDNLDGGVSLRRRVAPLVVALHETTLVYQMESAMRRHPDAVPLQVEGVSFCAALVDLPWPFEAEVDSEEGTPTSLADILAHSDGVLDVLHGALRRHRQNLCIARGVLHVWRVCAQHPANRVPLLQHGAYAGALQQLRGVLPYAVGVWREIAETVGYFIPLLDALQRRSLALTLRELLLRRPQLEMLELILALLLSLLMVV”, the “soluble on expression in E. coli” value is “not soluble”.
Regarding “MSELNKEMTLLPPPELVQYVGGDFKKVGKEFLKHFIQIGALKSNEKVLDVGCGVGRMAVPLMNYLNDDGAYYGFDLFKDGITWCQNNISTMRNNFHFEHVDIYNQFYNPEGKEDASQYRFPYEDGTFDFIFLTSVFTHLLPKELEHYVSEIVRVLKKDGRCFITFFLINPESSYYLNAGQSTLGFYHRIENCYVVNKDIPNFAVAYPETDICNLLNKYGLEIINKPHYGLWCGRHEYTSYQDIVLTKKSFLEHHHHHH”, the “soluble on expression in E. coli” value is given as “soluble”.
Regarding “GAMDISPTNHHEMLQNLQTVVNELYREDVDYVADKILTRQTVMQESIARFHEIIAIDKNHLRAVEQAIEQTMHSLNAQIDVLTANRAKVQQFSSTSHVDDEDVNSIAVAKTDGLNQLYNLVAQDYALTDTIECLSRMLHRGTIPLDTFVKQGRELARQQFLVRWHIQRITSPLS”, the “soluble on expression in E. coli” value was “soluble”.
With “MYNGILPVYKERGLTSHDVVFKLRKILKTKKIGHTGTLDPEVAGVLPVCIGNATRVSDYVMDMGKAYEATVSIGRSTTTEDQTGDTLETKGVHSADFNKDDIDRLLENFKGVIEQIPPMYSSVKVNGKKLYEYARNNETVERPKRKVNIKDIGRISELDFKENECHFKIRVICGKGTYIRTLATDIGVKLGFPAHMSKLTRIESGGFVLKDSLTLEQIKELHEQDSLQNKLFPLEYGLKGLPSIKIKDSHIKKRILNGQKFNKNEFDNKIKDQIVFIDDDSEKVLAIYMVHPTKESEIKPKKVFN” the entry was “soluble”; with “MAEQRFCVDYAKRGTAGCKKCKEKIVKGVCRIGKVVPNPFSESGGDMKEWYHIKCMFEKLERARATTKKIEDLTELEGWEELEDNEKEQITQHIADLSSKAAGTPKKKAVVQAKLTT”, “soluble”.
In the case of “MSMVVDSVPDSSTFVGKTIRPVAAVSIHGIVFDGERLLAVDSKNGYLLEIDPYTNNTKLLNGQYWQEFIGATGLAIADRQLWFSSGQYVYTCNLEGPDLKPEVFAWFDDPVNGVAIWESTVYITCHKRGHIWVYGRDTRKLVATFYSPGIGVENITVRGEELWVCDSAEQSVYCLDRATGEINFSLITPFESPTGLAFYDDQAVGKATLYVAYVQQEPYVRDNPNADPNHELMYRETTFIHPLYFYNDPHQCCAFSNGYLVEMRYVEELAPLDPVDLKQVEWRMALPAVTPRQRIRKIESVGLPFSRIDDVNGQKVAVFEFDQLDLDSRAVFGWRVEMEVWGIKYRLKPSDCEHLPALPEGFADRYLVDNDNLSMETDIIIRAAAEAIGRETNLLRQMFNIRNYVYDRLSYGIKPHIDTPDLALRRGVGSCGEYVGVLLALARLNGIACRTAGRYKCPPHPLQRNLPMEPDFNHVWFEFYLPGIGWLPMESNPDDTNDGGPYPTRFFMGLAWYHAETAKDVPFEQLLSQGIPVNKQVVSIGELAINHVQFTILEELDPAAHLAHLEHHHHHH”, the “soluble on expression in E. coli” value is on record as “soluble”.
The result for “KYRHEYYQKPEEVVVTVFAKGIPKQNVNIDFGEQILSVVIEVPGEDAYYLQPRLFGKIIPDKCKYEVLSTKIEICLAKADIITWASLEHG” reads “soluble”; that for “MGSDKIHHHHHHMKDNKINILFLSWRDIKCPKSGGAEVFTHEMLKRLDFNKYDITHFSPTFEGAKEKEIIDNVTYIRRGNILSVISEAKKYYKTNKDEIDFVVDQCNTHKFFTPLWVPKKKRIFFIHQLTREIWHINARFPISTLGYLFETPTLRLYKNDYTITVSDSTKKDLIDIGFDRDKVTIFPEGINFKPWDKDSLLKEKDNIFGYIGRFVNYKGIDAAVKAYCILKKDYPNSKLWIIGKKKDDYIEKVLLPILKENNITYGNRGQNRDITFWGFVSEKEKLSLMSKMKALLFPSIREGFGLTVIEAGAVGTPTVVYNSKGLVDAVDKGKAGYLCEENTPENLYYFMKNILENENEYGLKRKNAHDFSLKFNWDSTSKYFDDFINKLNEKSLKK”, “not soluble”; that for “MGKYFGTDGVRGVANKELTPELAFKIGRFGGYVLTKDTDRPKVIIGRDTRISGHMLEGALVAGLLSTGAEVMRLGVISTPGVAYLTKALDAQAGVMISASHNPVQDNGIKFFGSDGFKLTDEQEAEIEALLDKEVDELPRPTGTNLGQVSDYFEGGQKYLQYIKQTVEEDFSGLHIALDCAHGATSSLAPYLFADLEADISTMGTSPNGMNINDGVGSTHPEVLAELVKEKGADIGLAFDGDGDRLIAVDEKGNIVDGDQIMFICAKYMKETGQLKHNTVVSTVMSNLGFYKALEANGITSDKTAVGDRYVMEEMKRGGYNLGGEQSGHIILLDYITTGDGMLSALQLVNIMKMTKKPLSELAGEMTKFPQLLVNVRVTDKKLALENEKIKEIIRVVEEEMNGDGRILVRPSGTEPLIRVMAEAPTQEVCDAYVHRIVEVVKAEVGAE”, “not soluble”.
Take “MTASLMNTGKKNPFRDTQQGEYGNGDRNDWVMQASCRNGDPDALFVRGAEQRRAAAICRQCPVMIQCRADALDNKVEFGVWGGLTERQRRAILRKNPHVDSWEQFFAQGGELLGM”: the “soluble on expression in E. coli” value is given as “not soluble”.
Take “MIKMAQLEDIRKMYFMEGLSIREINRRTGIHRDTISKYISLEEPKPPKYKLTKERTHPVLGPYIPMIKQIIEDDKTRHRKQRHTGTKIFETLKKEGFSGGYNTVMDYLRKEYRKQREAFLPLEFELGAYAEVDWTEAYFYLKGKETKAHLFVMKLRGSGGFYVRAYPFEKQEAFFDGHIKCFEFMNG”: the “soluble on expression in E. coli” value was “not soluble”.
